Measured values from patent US20180079804A1 (Hoffmann-La Roche, published 2018).
Like-named read-outs stand apart in the source and are kept apart here. Non-standard residues stand in square brackets, D forms with d. No end group written: not given here. pS = N[C@@H](COP(=O)(O)O)C(=O)O

B1: mAb 086 (antibody, V domains shown)
VH: QSVEESGGRLVTPGTPLTLTCTVSGFSLSSNAINWVRQAPGKGLEWIGYIAVSGNTYYASWAKGRFTISKASTTVDLKMTSPTAEDTGTYFCGKSNIWGPGTLVTVSL
VL: AQVLTQTTSPVSAAVGSTVTISCQSSQSVRTNKLAWFQQKPGQPPKRLIYSASTLDFGVPSRFSASGSGTQFTLTISDVQCDDAATYYCLGYFDCSIADCVAFGGGTEVVVK
notes: also called rabbit antibody 086
B2: VH32/VL22 (antibody, V domains shown)
VH: EVQVLESGGGLVQPGGSLRLSCAVSGFSLSSNAINWVRQAPGKGLEWVGYIAVSGNTYYASWAKGRFTISRDNSKNTVYLQMNSLRAEDTAVYYCGKSNIWGQGTLVTVSS
VL: AQVMTQSPSSLSASVGDRVTITCRSSQSVRTNRLAWFQQKPGQPPKRLIYSASTLDYGVPSRFSGSGSGTEFTLTISSLQPEDFATYYCLGYFDSSADIVAFGGGTKVEIK
notes: full size IgG

Assays:
[1] = target: T1, Tau(pS422) fragment SEQ ID NO: 03 (human); assay: ELISA, ratio of EC50 values
T1 construct: also called phosphorylated tau peptide
T1 peptide: SIDMVD[pS]PQLATLAD
Protocol: Rabbit monoclonal antibodies were recombinantly expressed in HEK293 cells. […] For preparation of ELISA plates, streptavidin pre-coated microtiter plates were incubated with biotinylated tau (415-430)[pS422] at 50 ng/ml for 1 hour at room temperature. Coating with KLH or control peptides was performed at 1 μg/ml. Rabbit anti-Tau(pS422) antibody (Abcam AB51071) or rabbit antibody containing supernatants were incubated in the antigen labeled microtiter plates for 60 minutes at various concentrations. After intensive washing, the binding of the rabbit antibodies was detected using a sheep anti-rabbit IgG […] conjugated detection antibody (Chemicon AQ301D). After incubation with TMB at room temperature absorbance at 370 nm-492 nm was measured. The antibody binding was characterized by its EC₅₀ values. […] Cross-reactivity with KLH or MCAK phosphopeptide was estimated by single-point measurement at high concentrations, i.e., at 1:5 dilution of the cell culture supernatants. […] Binding to KLH and MCAK control phosphopeptide was at background level with all antibodies, which is about 1 to 3% of the maximal value measures with tau phosphopeptide.

[2] = target: T2, full length human tau SEQ ID NO: 01 (human, UniProt P10636 1-758); assay: ELISA, non-phosphorylated full-length human tau coated at 1 ug/ml, antibody titrated
T2 construct: not phosphorylated; also called tau protein; non-phosphorylated full-length human tau

[3] = target: T1, Tau(pS422) fragment SEQ ID NO: 03; assay: ELISA
Protocol: (§1) Non-biotinylated peptide/protein/aggregate was added to non-coated Maxisorb plates, biotinylated peptide/protein/aggregate in PBS was added to streptavidin-coated Maxisorb plates, and plates were incubated over-night. The supernatant was discarded and the wells washed three times with 90 μl wash buffer (1x PBS/0.1% Tween 20). Remaining reactive spots were blocked with blocking buffer (1x PBS/2% BSA (Bovine Serum Albumin Fraction V, fatty acid free, Roche, Cat. No.: 10735078001)/0.05% Tween 20) by incubating for 1 hour. The supernatant was discarded and the wells washed three times with 90 μl wash buffer. Samples and control antibody were prepared in 12 dilutions (1:2) in ELISA buffer (1×PBS/0.5% BSA (Bovine Serum Albumin Fraction V, fatty acid free, Roche, Cat. No.: 10735078001)/0.05% Tween 20) with a start concentration of 500 ng/mL. The incubation time was 60 minutes at room temperature on a shaker. The supernatant was discarded and the wells washed three times with 90 μl wash buffer. Solutions of secondary antibody were prepared in ELISA buffer. A total of 25 μl antibody-mix was transferred to all wells of the assay plate and the plate was thereafter incubated on shaker for 60 minutes at room temperature. The supernatant was discarded and the wells were washed three times with 90 μl wash buffer. 25 μl of ABTS solution was added to all wells. The absorbance was read at 405 nm-492 nm.

[4] = target: T2, full length human tau SEQ ID NO: 01; assay: ELISA
Protocol: as §1, with “No.: 10735078001)/0.05% Tween 20) with a start concentration of 500 ng/mL.” left out

[5] = target: T1, Tau(pS422) fragment SEQ ID NO: 03; assay: ELISA
Protocol: as §1, with “No.: 10735078001)/0.05% Tween 20) with a start concentration of 500 ng/mL.” left out

[6] = target: T3, tau peptide residues 416 to 430 of SEQ ID NO: 01 (human, also: biotinylated, site not given here); assay: ELISA
T3 construct: also called non-phosphorylated tau peptide
T3 peptide: SIDMVDSPQLATLAD
Protocol: as §1, with “No.: 10735078001)/0.05% Tween 20) with a start concentration of 500 ng/mL.” left out

T2 sequence (P10636 other isoform, or with tags, fused parts or gaps limits assumed): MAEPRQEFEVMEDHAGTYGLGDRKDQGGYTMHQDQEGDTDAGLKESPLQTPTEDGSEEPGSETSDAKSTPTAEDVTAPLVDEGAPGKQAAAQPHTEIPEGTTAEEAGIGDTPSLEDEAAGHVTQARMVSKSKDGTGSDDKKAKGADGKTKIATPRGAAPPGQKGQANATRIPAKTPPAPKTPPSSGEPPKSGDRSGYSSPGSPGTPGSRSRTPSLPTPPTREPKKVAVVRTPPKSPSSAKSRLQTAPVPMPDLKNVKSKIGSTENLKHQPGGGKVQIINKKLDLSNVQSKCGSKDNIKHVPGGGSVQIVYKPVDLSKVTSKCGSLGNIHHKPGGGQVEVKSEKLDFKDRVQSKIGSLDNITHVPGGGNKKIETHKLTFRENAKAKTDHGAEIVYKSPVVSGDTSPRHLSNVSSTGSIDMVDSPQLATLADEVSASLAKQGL

Binder | selectivity for phosphorylated tau fragment compared to non-phosphorylated tau peptide [1] [fold] | binding result [2] | EC50 [3] [mg/L] | OD@1 µg/mL [4] [OD] | EC50 [5] [mg/L] | OD@1 µg/mL [6] [OD]
B1 | ≥ 100 |  |  |  |  | 
B2 |  | no binding (tested: 1000 ng/ml) | 0.0056 | 0.14 | 0.0404 | 2.26
